According to patent US11851498B2, “Anti-CD276 antibodies (B7H3)” (THE UNITED STATES OF AMERICA, as represented by THE …, priority 2014, dated 2023):
Entries after “also recorded” stand apart in the source; their conditions may differ. Non-standard residues stand in square brackets, D forms with d. Residues, ends and D or L forms follow the SMILES beside them. *: point of attachment. Dolaproine = CO[C@@H]([C@@H]1CCCN1)[C@@H](C)C(=O)O; Dil = CC[C@H](C)[C@H](NC)[C@@H](CC(=O)O)OC; X1 = C[C@@H](N*)[C@@H](O)c1ccccc1; NMeV = CN[C@H](C(=O)O)C(C)C

What was measured:
[1] = test system: 293/CD276 cells; assay: Cell viability of HEK 293 cells transduced with CD276; conditions: FIG. 7
Protocol: (§1) HEK 293 cells (293) or HEK 293 cells transduced with CD276 (293/CD276) were treated with MMAE alone, m8524 (m276) (SEQ ID NOs: 26 and 27) antibody alone, m825 (irrelevant control antibody)-ADC, or m8524-ADC. The drug of the ADCs was MMAE.

[2] = test system: HEK 293 cells (293); assay: Cell viability of untransduced HEK 293 cells; conditions: 293 cells (low CD276); various concentrations (nM); FIG. 7
Protocol: as §1

[3] = test system: mouse CD276-AP fusion protein; assay: ELISA binding assay, mouse CD276; conditions: scFv-Fc fusion protein in culture medium, serially diluted; CD276-AP coated at 2 μg/ml; FIG. 1B
mouse CD276-AP fusion protein, sequence (Q8VE98 29-248 limits assumed): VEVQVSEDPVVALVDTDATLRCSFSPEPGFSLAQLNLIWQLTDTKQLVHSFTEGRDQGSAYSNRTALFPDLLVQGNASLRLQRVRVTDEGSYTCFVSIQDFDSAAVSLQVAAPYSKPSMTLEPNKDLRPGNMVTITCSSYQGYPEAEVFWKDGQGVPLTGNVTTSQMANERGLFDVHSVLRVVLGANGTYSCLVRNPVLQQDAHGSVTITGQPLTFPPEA
Protocol: (§2) The scFv-encoding inserts of the unique clones were digested with SfiI and ligated into modified pSecTag bearing the same set of SfiI sites and Fc-Avi tag for soluble expression. These constructs were transfected into 293T cells for expression following the manufacturer's protocol. After 72 hr of growth, the scFv-Fc fusion proteins in the culture medium were used for the ELISA binding assay.
(§3) 50 μl of the diluted human (FIG. 1A) or mouse (FIG. 1B) CD276-AP fusion protein in PBS at 2 μg/ml was coated in a 96-well plate at 4° C. overnight. Transiently expressed scFv-Fc fusion protein in the culture medium was serially diluted and added into the target protein coated wells. After washing, a 1:3000 diluted horseradish peroxidase (HRP) conjugated goat anti-human IgG antibody was added for 1 hr at RT. After washing, 3, 3, 5, 5′-Tetramethylbenzidine (TMB) substrate was added, and the optical density (O.D.) was read at 450 nm.

[4] = test system: human CD276-AP fusion protein; assay: ELISA binding assay, human CD276; conditions: scFv-Fc fusion protein in culture medium, serially diluted; CD276-AP coated at 2 μg/ml; FIG. 1A
Protocol: as §2, §3

[5] = target: T1, human CD276 expressed on the surface of HEK 293 cells (293/CD276) (Homo sapiens, UniProt Q5ZPR3); assay: Flow cytometry binding to HEK293 cells transduced with human CD276; type: cell-based; conditions: FITC-labeled IgG1; FIG. 5
T1 construct: expressed in transfected cells; host or cells: HEK293 cells
T1 sequence (Q5ZPR3 29-534): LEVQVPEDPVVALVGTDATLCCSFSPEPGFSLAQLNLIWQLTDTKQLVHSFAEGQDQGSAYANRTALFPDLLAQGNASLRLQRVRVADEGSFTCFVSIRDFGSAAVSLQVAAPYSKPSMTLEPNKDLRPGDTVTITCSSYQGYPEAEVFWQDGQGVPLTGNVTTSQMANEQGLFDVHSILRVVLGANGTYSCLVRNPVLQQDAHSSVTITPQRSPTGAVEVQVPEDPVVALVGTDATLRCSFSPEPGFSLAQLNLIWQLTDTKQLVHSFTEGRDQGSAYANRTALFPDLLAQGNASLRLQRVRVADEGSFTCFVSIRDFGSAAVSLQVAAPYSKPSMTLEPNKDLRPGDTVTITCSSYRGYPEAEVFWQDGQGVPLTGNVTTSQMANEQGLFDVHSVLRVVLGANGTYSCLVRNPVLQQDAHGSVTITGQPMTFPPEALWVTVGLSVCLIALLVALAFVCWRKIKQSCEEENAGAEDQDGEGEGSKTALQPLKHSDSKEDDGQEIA
Protocol: HEK293 cells were untransduced or transduced to express human CD276. The cells were cultured with FITC-labeled human anti-CD276 antibody m8524 IgG1 (SEQ ID NOs: 26 and 27). The binding of the FITC-labeled human anti-CD276 antibody m8524 IgG1 to human CD276 expressed on the cell surface was measured by flow cytometry.

[6] = test system: Pan02 pancreatic adenocarcinoma tumors, tumor vasculature and normal tissues; assay: In vivo localization of FITC-labeled antibody after IP injection into Pan02 tumor-bearing mice (immunofluorescence); conditions: FITC-labeled IgG1 IP; for localization/staining in tumor (tumor cells and tumor vasculature): co-stain anti-CD31/anti-Meca32
Protocol: CD276 KO mice and CD276 WT mice each bearing Pan02 pancreatic adenocarcinoma tumors were injected (IP) with FITC-labeled 8524 IgG1 (SEQ ID NOs: 26 and 27) and anti-CD31/anti-Meca32. Anti-Meca32 is a monoclonal antibody with specificity for mouse endothelium.
(§4) CD276-positive, Pan02 pancreatic adenocarcinoma tumor-bearing, CD276 KO mice were injected (IP) with FITC-labeled 8524 IgG1 (SEQ ID NOs: 26 and 27) (green staining) and anti-CD31/anti-Meca32 (red staining). CD31/Meca32 positive vessels were stained red. Human tumor cells were stained green. Separate photographic images of the green and red staining were taken, and the images of the red and green staining were merged to provide a third image wherein co-localization of red and green staining provided a yellow signal.
as §4, with “WT” for “KO”
CD276 KO mice and CD276 WT mice each bearing Pan02 pancreatic adenocarcinoma tumors were injected (IP) with FITC-labeled 8524 IgG1 (SEQ ID NOs: 26 and 27) and anti-CD31/anti-Meca32. CD31/Meca32 positive vessels in the normal liver of both CD276 KO and CD276 WT mice and in the tumor vasculature of CD276 WT mice were stained red. Human tumor cells and tumor vasculature were stained green in the CD276 WT mice. Separate photographic images of the green and red staining in the tumor of CD276 WT mice were taken, and the images of the red and green staining were merged to provide a third image wherein co-localization of red and green staining provided a yellow signal. […] The yellow signal indicated the co-localization of the CD31/Meca32 staining (red) with the CD276 staining (green).
CD276 WT mice bearing Pan02 pancreatic adenocarcinoma tumors were injected (IP) with FITC-labeled 8524 IgG1 (SEQ ID NOs: 26 and 27) and anti-CD31/anti-Meca32. CD31/Meca32 positive vessels in normal tissues, including the brain, heart, intestines, liver, muscle, spleen, and stomach of the CD276 WT mice were stained red. Pan02 tumors served as a positive control for the staining of all normal tissues. CD31/Meca32 positive vessels in the tumor vasculature of CD276 WT mice were also stained red. Human tumor cells and tumor vasculature were stained green in the CD276 WT mice. […]

[7] = test system: MC38 (colon cancer) tumor / normal liver margin; assay: Co-immunofluorescence post-staining of intrahepatic MC38 tumors at the normal liver/tumor margin; conditions: MC38 tumor-bearing WT mice; samples post-stained with FITC-labeled IgG1; FIG. 6B
Description: Samples of the normal liver/tumor margin of MC38 (colon cancer)-tumor bearing, WT mice were post-stained with FITC-labeled human anti-CD276 antibody (m8524 IgG1) (SEQ ID NOs: 26 and 27) (FIG. 6B) or laminin (FIG. 6A). Photographic images were taken.

[8] = CD276 WT mice bearing Pan02 tumors

Molecule: CC[C@H](C)[C@@H]([C@@H](CC(=O)N1CCC[C@H]1[C@H](OC)[C@@H](C)C(=O)N[C@H](C)[C@@H](O)c1ccccc1)OC)N(C)C(=O)[C@@H](NC(=O)[C@@H](NC)C(C)C)C(C)C [MMAE, monomethyl auristatin E, reference compound] (H-[NMeV]V[Dil][Dolaproine]-X1)
- cytotoxicity (cell viability, % of control) ([1]; 293/CD276 cells (high CD276), various concentrations (nM)): cytotoxic to all cells
- selectivity for CD276-expressing cells ([1]; 293/CD276 versus 293 cells): no selectivity
- cytotoxicity (cell viability, % of control) [2]: cytotoxic to all cells

B1: m852: anti-CD276 antibody clone, heavy chain comprising SEQ ID NO: 7 and light chain comprising SEQ ID NO: 8 (antibody, V domains shown)
VH: QVQLQQSGAEVKKPGSSVKVSCKASGGTFSSYAISWVRQAPGQGLEWMGGIIPILGIANYAQKFQGRVTITADESTSTAYMELSSLRSEDTAVYYCARGRRSGSYYMGYWGQGTLVTVSS
VL: EIVLTQSPATLSLSPGERATLSCRASQSVSSNLAWYQQKPGQAPRLLIYDTSTRATGIPARFSGSGSGTEFTLTISSLQSEDFAVYYCQQYNNWPPAYTFGQGTKLEIK
- binding to mouse CD276 (OD at 450 nm, ELISA) [3]: bound
- binding to human CD276 (OD at 450 nm, ELISA) [4]: bound

B2: m857: anti-CD276 antibody clone, heavy chain comprising SEQ ID NO: 17 and light chain comprising SEQ ID NO: 18 (antibody, V domains shown)
VH: QVQLQQSGAEVKKPGSSVKVSCKASGGTFSSYAISWVRQAPGQGLEWMGGIIPILGIANYAQKFQGRVTITADESTSTAYMELSSLRSEDTAVYYCATGGSGSYAFDIWGQGTMVTVSS
VL: EIVLTQSPATLSLSPGERATLSCRASQSVSSYLAWYQQKPGQAPRLLIYDASNRATGIPARFSGSGSGTDFTLTISSLEPEDFAVYYCQQRSNWPPSYTFGQGTKLEIK
- binding to mouse CD276 (OD at 450 nm, ELISA) [3]: bound
- binding to human CD276 (OD at 450 nm, ELISA) [4]: bound

B3: m8524 IgG1: human anti-CD276 antibody m8524 in IgG1 format (SEQ ID NOs: 26 and 27), FITC-labeled (antibody, V domains shown)
VH: QVQLQQSGAEVKKPGSSVKVSCKASGGTFSSYAISWVRQAPGQGLEWMGGIIPILGIANYAQKFQGRVTITADESTSTAYMELSSLRSEDTAVYYCARGGSGSYHMDVWGKGTTVTVSS
VL: EIVLTQSPATLSLSPGERATLSCRASQSVSSYLAWYQQKPGQAPRLLIYDASNRATGIPARFSGSGSGTDFTLTISSLEPEDFAVYYCQQRSNWPPRITFGQGTRLEIK
modifications: FITC label
- binding to CD276-transfected 293 cells as compared to non-transfected parent 293 cells (flow cytometry) [5]: increased binding
- staining of normal liver ([6]; CD276 WT and CD276 KO mice bearing Pan02 tumors): not the normal liver
- staining of normal tissues (brain, heart, intestines, liver, muscle, spleen, stomach) [6, 8]: did not stain any of the normal tissues
- localization/staining in tumor (tumor cells and tumor vasculature) [6, 8]: co-localization; also recorded: localized to both human tumor cells and tumor vasculature; also recorded: stained tumor cells and tumor vasculature
- localization/staining in tumor (tumor cells and tumor vasculature) ([6]; CD276 WT mice bearing Pan02 tumors, listed as 8524 IgG1): stained tumor cells (green) and tumor vasculature
- staining at the normal liver/tumor margin [7]: stained tumor cells but not normal tissue
